Results from US20090324601A1 (published 2009).

Legend:
[1] = target: T1, murine PDGFRa on NIH3T3 cells (murine, UniProt P26618 25-1089); experiment: FACS on NIH3T3 cells, goat anti-human IgG Cy5
T1 construct: whole, on cells; also called mouse PDGFR-alpha

[2] = target: PDGFR-alpha on human osteosarcoma MG-63 cells (human, UniProt P16234 24-1089); experiment: cell-based or functional assay
[3] = target: T2, PDGFR-alpha on MG-63 cells (human, UniProt P16234 24-1089); experiment: cell-based or functional assay
[4] = target: T2, PDGFR-alpha on MG-63 cells; experiment: cell-based or functional assay; remark: listed apart in the source
CSF-1R = CSF-1R (UniProt P07333 20-512, limits assumed); experiment: method not described
c-kit = c-kit (UniProt P10721 26-520, limits assumed); experiment: method not described
PDGFR-beta = PDGFR-beta (UniProt P09619 33-530, limits assumed); experiment: method not described
FLT3 = FLT3 (UniProt P36888 27-541, limits assumed); experiment: method not described

PDGFR-alpha on human osteosarcoma MG-63 cells, sequence (P16234 24-1089): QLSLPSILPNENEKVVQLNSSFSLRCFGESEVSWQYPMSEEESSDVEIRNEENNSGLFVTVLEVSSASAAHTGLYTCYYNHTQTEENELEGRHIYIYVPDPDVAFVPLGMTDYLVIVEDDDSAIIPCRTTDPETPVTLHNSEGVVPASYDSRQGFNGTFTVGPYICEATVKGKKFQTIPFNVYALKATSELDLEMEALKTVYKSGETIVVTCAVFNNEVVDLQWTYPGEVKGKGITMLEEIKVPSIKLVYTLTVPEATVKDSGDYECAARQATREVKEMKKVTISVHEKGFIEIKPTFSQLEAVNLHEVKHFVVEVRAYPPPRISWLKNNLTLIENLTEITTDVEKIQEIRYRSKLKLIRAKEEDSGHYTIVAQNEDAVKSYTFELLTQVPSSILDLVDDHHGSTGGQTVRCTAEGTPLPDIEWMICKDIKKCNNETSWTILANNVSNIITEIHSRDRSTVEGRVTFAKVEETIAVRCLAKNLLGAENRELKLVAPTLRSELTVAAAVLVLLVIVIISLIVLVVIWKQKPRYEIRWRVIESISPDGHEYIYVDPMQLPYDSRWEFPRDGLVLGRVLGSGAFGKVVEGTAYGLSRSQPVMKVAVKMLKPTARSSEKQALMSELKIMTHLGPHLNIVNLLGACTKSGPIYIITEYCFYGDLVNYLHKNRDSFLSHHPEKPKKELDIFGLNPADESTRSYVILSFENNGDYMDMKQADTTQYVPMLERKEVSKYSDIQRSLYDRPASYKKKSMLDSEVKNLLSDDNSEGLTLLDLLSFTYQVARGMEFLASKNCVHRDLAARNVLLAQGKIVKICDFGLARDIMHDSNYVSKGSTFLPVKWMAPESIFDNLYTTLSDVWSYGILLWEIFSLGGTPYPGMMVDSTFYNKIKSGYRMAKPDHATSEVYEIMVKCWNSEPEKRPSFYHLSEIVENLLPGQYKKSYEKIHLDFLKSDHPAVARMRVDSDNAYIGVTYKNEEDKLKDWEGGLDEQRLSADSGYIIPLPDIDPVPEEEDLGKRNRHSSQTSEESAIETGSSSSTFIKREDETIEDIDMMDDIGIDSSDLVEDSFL
T2 sequence (P16234 24-1089): as above
CSF-1R, sequence (P07333 20-512 limits assumed): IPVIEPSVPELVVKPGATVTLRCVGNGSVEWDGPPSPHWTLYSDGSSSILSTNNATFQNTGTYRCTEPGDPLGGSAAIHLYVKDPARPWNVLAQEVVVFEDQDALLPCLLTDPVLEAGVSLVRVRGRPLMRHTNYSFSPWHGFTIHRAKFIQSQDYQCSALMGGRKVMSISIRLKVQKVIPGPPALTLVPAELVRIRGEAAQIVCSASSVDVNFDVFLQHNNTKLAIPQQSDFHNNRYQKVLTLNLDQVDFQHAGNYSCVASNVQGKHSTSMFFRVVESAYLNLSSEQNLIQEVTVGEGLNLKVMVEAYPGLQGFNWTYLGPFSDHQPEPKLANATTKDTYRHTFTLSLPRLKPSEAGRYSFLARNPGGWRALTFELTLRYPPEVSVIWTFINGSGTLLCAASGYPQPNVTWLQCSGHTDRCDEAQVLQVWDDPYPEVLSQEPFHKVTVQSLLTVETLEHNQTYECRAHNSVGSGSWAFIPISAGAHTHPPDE
c-kit, sequence (P10721 26-520 limits assumed): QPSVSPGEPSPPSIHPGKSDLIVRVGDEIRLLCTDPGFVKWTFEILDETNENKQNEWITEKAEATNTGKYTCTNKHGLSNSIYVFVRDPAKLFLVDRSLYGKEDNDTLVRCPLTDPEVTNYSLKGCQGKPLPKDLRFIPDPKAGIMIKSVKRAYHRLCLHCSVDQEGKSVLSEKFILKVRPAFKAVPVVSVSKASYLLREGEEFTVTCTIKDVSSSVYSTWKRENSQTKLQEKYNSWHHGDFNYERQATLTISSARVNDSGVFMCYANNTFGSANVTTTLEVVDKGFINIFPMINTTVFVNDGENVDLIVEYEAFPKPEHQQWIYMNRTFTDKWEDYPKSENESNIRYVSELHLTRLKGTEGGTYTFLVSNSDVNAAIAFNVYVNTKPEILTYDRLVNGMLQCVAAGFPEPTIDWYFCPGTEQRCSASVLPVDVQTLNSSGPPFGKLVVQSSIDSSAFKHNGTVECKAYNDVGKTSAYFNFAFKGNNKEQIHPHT
PDGFR-beta, sequence (P09619 33-530 limits assumed): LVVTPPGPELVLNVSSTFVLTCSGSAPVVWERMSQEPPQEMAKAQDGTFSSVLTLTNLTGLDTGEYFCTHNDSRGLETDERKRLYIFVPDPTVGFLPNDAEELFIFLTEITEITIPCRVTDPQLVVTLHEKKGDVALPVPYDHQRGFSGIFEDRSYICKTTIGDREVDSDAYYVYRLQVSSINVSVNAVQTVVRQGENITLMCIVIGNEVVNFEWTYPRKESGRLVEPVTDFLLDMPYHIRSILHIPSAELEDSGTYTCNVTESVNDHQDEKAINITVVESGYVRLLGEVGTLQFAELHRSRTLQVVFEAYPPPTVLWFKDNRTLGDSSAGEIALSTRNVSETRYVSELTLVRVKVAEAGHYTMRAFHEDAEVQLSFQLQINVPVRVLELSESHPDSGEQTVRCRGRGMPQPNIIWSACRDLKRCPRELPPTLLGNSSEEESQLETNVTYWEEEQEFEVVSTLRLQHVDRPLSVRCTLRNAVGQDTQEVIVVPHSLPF
T1 sequence (P26618 25-1089): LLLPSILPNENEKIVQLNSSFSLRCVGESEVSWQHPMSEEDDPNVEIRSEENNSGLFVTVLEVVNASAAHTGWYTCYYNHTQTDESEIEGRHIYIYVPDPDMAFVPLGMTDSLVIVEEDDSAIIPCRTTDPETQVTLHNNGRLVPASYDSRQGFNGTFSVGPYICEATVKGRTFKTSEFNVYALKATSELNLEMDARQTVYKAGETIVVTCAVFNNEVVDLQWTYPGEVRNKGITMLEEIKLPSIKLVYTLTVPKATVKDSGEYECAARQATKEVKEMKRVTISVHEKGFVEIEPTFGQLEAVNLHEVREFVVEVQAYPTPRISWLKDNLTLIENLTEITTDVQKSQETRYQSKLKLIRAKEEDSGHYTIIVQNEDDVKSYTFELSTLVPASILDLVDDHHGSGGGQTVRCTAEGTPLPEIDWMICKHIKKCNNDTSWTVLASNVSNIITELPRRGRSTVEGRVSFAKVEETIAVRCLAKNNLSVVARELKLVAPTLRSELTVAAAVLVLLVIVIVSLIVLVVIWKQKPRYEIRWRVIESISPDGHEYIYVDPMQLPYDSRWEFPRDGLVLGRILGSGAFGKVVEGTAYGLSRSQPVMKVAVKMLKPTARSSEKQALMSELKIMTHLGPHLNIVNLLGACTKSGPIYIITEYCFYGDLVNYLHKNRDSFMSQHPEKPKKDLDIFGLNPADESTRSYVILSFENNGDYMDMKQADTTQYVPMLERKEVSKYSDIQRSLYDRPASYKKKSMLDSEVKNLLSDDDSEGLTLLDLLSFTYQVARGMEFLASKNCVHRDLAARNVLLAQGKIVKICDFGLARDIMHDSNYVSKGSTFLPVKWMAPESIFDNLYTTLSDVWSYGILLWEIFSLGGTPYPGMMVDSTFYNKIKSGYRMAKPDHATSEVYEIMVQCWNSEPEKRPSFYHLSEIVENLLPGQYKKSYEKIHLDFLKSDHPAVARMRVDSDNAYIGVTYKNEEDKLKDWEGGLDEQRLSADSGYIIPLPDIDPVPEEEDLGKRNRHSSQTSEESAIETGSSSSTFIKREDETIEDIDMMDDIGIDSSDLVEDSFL

B1: 2.796.2 (antibody, V domains shown)
VH: QVQLVESGGGLVKPGGSLRLSCAASGFTFSDYYMNWIRQAPGKGLEWVSYISSSGSIIYYADSVKGRFTISRDNAKNSLYLQMNSLRAEDTAVYYCARDGHIAARGMDVWGQGTTVTVSS
VL: DIQMTQSPSSLSASVGDRVTITCRASQSFSRYINWYQQKPGKAPKLLIYAASSLQGGVPSRFSGSGSGTDFTLTISSLQPEDFATYYCQQTYSNPPITFGQGTRLEIK
binding result [1]: no binding (tested: 10 ug/ml) | Proliferation Assay: IC50 ng/ml (1-6-06) [2]: 498 ng/mL | Proliferation Assay: IC50 ng/ml (1-23-06) [2]: 757 ng/mL | pTyr Assay: % Inhibition @ 2 µg/ml [2]: 99%

B2: 2.1623.2 (antibody, V domains shown)
VH: QVQLVESGGGLVKPGGSLRLSCAASGFTFSDYYMNWIRQAPGKGLEWVSFISSSGSTIYYADSVKGRFTISRDNAKNSLYLQMNSLRAEDTAVYYCARDGHIAARGMDVWGQGTTVTVSS
VL: DIQMTQSPSSLSASVGDRVTITCRASQSFSRYINWYQQKPGKAPKLLIYAASSLQGGVPSRFSGSGSGTDFTLAISSLQPEDFATYYCQQTYSTPPITFGQGTRLEIK
Average pTyr Inhibition [3]: > 100% | PROLIFERATION ASSAY: MG-63 CELLS, IC50 [4]: 6.5 nM

B3: 2.796.2 (antibody, V domains shown)
VH: QVQLVESGGGLVKPGGSLRLSCAASGFTFSDYYMNWIRQAPGKGLEWVSYISSSGSIIYYADSVKGRFTISRDNAKNSLYLQMNSLRAEDTAVYYCARDGHIAARGMDVWGQGTTVTVSS
VL: DIQMTQSPSSLSASVGDRVTITCRASQSFSRYINWYQQKPGKAPKLLIYAASSLQGGVPSRFSGSGSGTDFTLTISSLQPEDFATYYCQQTYSNPPITFGQGTRLEIK
Average pTyr Inhibition [3]: 93% | PROLIFERATION ASSAY: MG-63 CELLS, IC50 [4]: 5 nM

B4: 2.1853.3 (antibody, V domains shown)
VH: QVQLVESGGGLVKPGGSLRLSCAASGFTFSDYYMNWIRQAPGKGLEWVSYISSSGSIIYYADSVKGRFTISRDNAKNSLYLQMNSLRAEDTAVYYCARDGRIVARGMDVWGQGTTVTVSS
VL: DIQMTQSPSSLCASVGDRVTITCRASRSITRYLNWYQQKPGKAPKLLIYGASSLQSGVPSRFSGSGSGTDFTLTISSLQPEDFATYYCQQSYSTPPITFGQGTRLEIK
Average pTyr Inhibition [3]: > 100% | PROLIFERATION ASSAY: MG-63 CELLS, IC50 [4]: 18 nM

B5: 2.737.1.4 (antibody, V domains shown)
VH: QVQLVESGGGLVKPGGSLRLSCAASGFTFRDYYMSWIRQAPGKGLEWVAFISSSGSIIYYADSVKGRFTISRDNAKNSLFLQMNSLRAEDTAVYYCARDGHIAARGMDVWGQGTTVTVSS
VL: DIQMTQSPSSLSASVGDRVTITCRASQSINKYINWYQQKPGKAPKLLIYAASSLQSGVPSRFNGSGSGTDFTFTINTLQPEDFATYYCQQTYSTPPITFGQGTRLEIK
Average pTyr Inhibition [3]: 93% | PROLIFERATION ASSAY: MG-63 CELLS, IC50 [4]: 3.72 nM

B6: 2.2071.1.3 (antibody, V domains shown)
VH: QVQLVESGGGLVKPGGSLRLSCAASGFTFSDYYMNWIRQAPGKGLEWVSYISSSGSIIYYADSVKGRFTISRDNAKNSLYLQMNSLRAEDTAVYYCARDGRIVARGMDVWGQGTTVTVSS
VL: DIQMTQSPSSLSASVGDRVTLTCRASHSINRYINWYQQKPGKAPKLLIYAASSLQSGVPSRFSGNGSGTDFTLTISSLQPEDFATYYCQQSYSTPPITFGQGTRLEIT
Average pTyr Inhibition [3]: > 100% | PROLIFERATION ASSAY: MG-63 CELLS, IC50 [4]: 3.3 nM

B7: 2.2071.1.3 (antibody, V domains shown)
VH: QVQLVESGGGLVKPGGSLRLSCAASGFTFSDYYMNWIRQAPGKGLEWVSYISSSGSIIYYADSVKGRFTISRDNAKNSLYLQMNSLRAEDTAVYYCARDGRIVARGMDVWGQGTTVTVSS
VL: DIQMTQSPSSLSASVGDRVTLTCRASHSINRYINWYQQKPGKAPKLLIYAASSLQSGVPSRFSGNGSGTDFTLTISSLQPEDFATYYCQQSYSTPPITFGQGTRLEIT
binding result [1]: no binding (tested: 10 ug/ml) | Proliferation Assay: IC50 ng/ml (1-6-06) [2]: 1280 ng/mL | Proliferation Assay: IC50 ng/ml (1-23-06) [2]: 492 ng/mL | Proliferation Assay: IC50 (1-6-06) [2]: 8.5 nM | Proliferation Assay: IC50 (1-23-06) [2]: 3.3 nM | pTyr Assay: % Inhibition @ 2 µg/ml [2]: 99%

B8: 5.16.1 (antibody, V domains shown)
VH: QVQLVQSGAEVKKPGASVKVSCKASGYTFTSYYMYWVRQAPGQGLEWMGIINPSGGSTSYAQKFQGRVTMTRDTSTSTVYMELSSLRSEDTAVYYCARGSSPFFDYWGQGTLVTVSS
VL: DIQMTQSPSSLSASVGDRVTITCRASQIISHFLNWYQQKPGKAPKLLVYVASSLQSGVPSRFSGSGSGTDFTLTISSLQPEDFATYYCQQSFSIPLTFGGGTKVEIK
PROLIFERATION ASSAY: MG-63 CELLS, IC50 [4]: 2.8 nM

B9: 2.2002.3 (antibody, V domains shown)
VH: QVQLVESGGGVVQPGRSLRVSCAASGFMFRSYGMHWVRQAPGKGLEWVAVIWHDGSNKNHGDSVKGRFTISRDNSKNTLYLQMNSLRAEDTAVYYCARGRLAGGGPYYYYYYGMDVWGQGTTVTVSS
VL: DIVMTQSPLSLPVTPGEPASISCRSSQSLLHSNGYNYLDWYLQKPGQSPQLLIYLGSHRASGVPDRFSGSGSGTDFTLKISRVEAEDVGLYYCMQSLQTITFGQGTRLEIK
notes: Variable regions only
binding result (CSF-1R): no binding | binding result (c-kit): no binding | binding result (PDGFR-beta): no binding | binding result (FLT3): no binding

B10: 2.414.2 (antibody, V domains shown)
VH: QLQLQESGPGLVKPSETLSLTCTVSGGSISSSNYYWGWIRQPPGKGLEWIGTIYYTGSTYYNPSLKSRVTISVDTSKNQFSLKLSSVTAADTAVYYCARHHWVFDYWGQGTLVTVSS
VL: EIVLTQSPDFLSVTPKEKVTITCRASQIIGSSLHWYQQKPDQSPKLLIKYASQSFSGVPSRFSGSGSGTDFTLTLNSLEAEDAATYYCHQSTILPWTFGQGTKVEIK
Average pTyr Inhibition [3]: 98% | PROLIFERATION ASSAY: MG-63 CELLS, IC50 [4]: 2.3 nM

B11: 2.84.3 (antibody, V domains shown)
VH: QLQLQESGPGLVKPSETLSLTCTVSGGFISSSSYYWGWIRQPPGKGLEWIGTIYYSGTTYYNSSLKSRVTISVDTSQNQFSLKLSSVTAADTAVYYCARHHWVFDYWGQGTLVTVSS
VL: EVVLTQSPDFQSVTPKEKITITCRASQIIGTSLHWYQKKPDQSPKLLIKYASQSFSGVPSRFSGSGSGTEFTLTINSLEAEDTATYYCHQSTNLPWTFGQGTKVEIK
notes: Variable regions only; also called 2.84.1; 2.84.2
binding result (CSF-1R): no binding | binding result (c-kit): no binding | binding result (PDGFR-beta): no binding | binding result (FLT3): no binding

B12: 2.542.2 (antibody, V domains shown)
VH: QLQLQESGPGLVKPSETLSLTCTVSGGSISSSTYYWGWIRQPPGKGLEWIGTIYYSGSTYYNPSLKSRVTISVDTSKNQFSLKLNSVTAADTAVYYCARHHWVFDYWGQGTLVTVSS
VL: EIVLTQSPDFLSVTPKEKVTITCRASQIIGSSLHWYQQKPDQSPNLLIKYASQSVSGVPSRFSGSGSGTDFTLTLNSLEAEDAATYYCHQSTILPWTFGQGTKVEIK
Average pTyr Inhibition [3]: 91% | PROLIFERATION ASSAY: MG-63 CELLS, IC50 [4]: 4.35 nM

B13: 2.998.2 (antibody, V domains shown)
VH: QLQLQESGPGLVKPSETLSLTCTVSGDSISSFIYYWGWIRQPPGKGLEWIGTIYYSGSTYYNPSLKSRVTISVDTSKNQFSLKLRSVTAADTAVYYCARHHWVFDYWGQGTQVTVSS
VL: DIVLTQFPDFQSVTPKEKVTITCRASQVIGSSLHWYQQKPDQSPKLLIKYASQSFSGVPSRFSGSGSGTDFTLTINSLEVEDAATYYCHQSTILPWTFGQGTKVEVK
notes: Variable regions only
binding result (CSF-1R): no binding | binding result (c-kit): no binding | binding result (PDGFR-beta): no binding | binding result (FLT3): no binding

B14: 3.341.2 (antibody, V domains shown)
VH: EVQLVESGGGLVQPGGSLRLSCAASGFTFSSYSMNWVRQAPGKGLEWVSFISGSSSTMYYADSVKGRFTISRDNAKNSLYLQMNSLRDEDTAVYYCARLRYFDWSYAFDIWGQGTMVTVSS
VL: DIQMTQSPSSVSTSVGDRVTITCRASQGIRSWLAWYQQRPGKAPKLLIYAASSLQNGVPSRFSGSGSGTDFTLTISSLQPEDFATYFCQQATSFPFTFGPGTKVDIN
Average pTyr Inhibition [3]: > 100% | PROLIFERATION ASSAY: MG-63 CELLS, IC50 [4]: 3.1 nM

B15: 3.341.1 (antibody, V domains shown)
VH: EVQLVESGGGLVQPGGSLRLSCAASGFTFSSYSMNWVRQAPGKGLEWVSFISGSSSTMYYADSVKGRFTISRDNAKNSLYLQMNSLRDEDTAVYYCARLRYFDWSYAFDIWGQGTMVTVSS
VL: DIQMTQSPSSVSTSVGDRVTITCRASQGIRSWLAWYQQRPGKAPKLLIYAASSLQNGVPSRFSGSGSGTDFTLTISSLQPEDFATYFCQQATSFPFTFGPGTKVDIN
notes: Variable regions only; the assays name clone 3.341.2; also called 3.341.2
binding result (CSF-1R): no binding | binding result (c-kit): no binding | binding result (PDGFR-beta): no binding | binding result (FLT3): no binding

B16: 3.818.4 (antibody, V domains shown)
VH: EVQLVESGGGLVQPGGSLRLSCAASGFTFSSYSMNWVRQAPGKGLEWVSYISGSSTTMYYADSVKGRFTISRDNAKNSLYLQMNSLRDEDTAVYYCARLRHFDWSYAFDIWGQGTMVTVSS
VL: DIQMTQSPSSVSTSVGDRVTITCRASQGISSWLAWYQQRPGKAPKLLIYAASSLQSGVPSRFSGSGSGTDFTLTISSLQPEDFATYFCQQATSFPFTFGPGTKVGIK
notes: Variable regions only
binding result (CSF-1R): no binding | binding result (c-kit): no binding | binding result (PDGFR-beta): no binding | binding result (FLT3): no binding

B17: 2.351.3 (antibody, V domains shown)
VH: QVQLVQSGAEVKKPGASVKVSCKASGYTFIGYYLHWVRQAPGQGLEWMGSINPNSGGTNYAQKFQGRVTMIRDTSINTAYMELSRLRSDDTAVYYCARDKRITMVRGVHYLYYGWDVWGQGTTVTVSS
VL: DIQMTQSPSSLSASVGDRVTITCRASQVISNYLAWYQQKPGKVPQLLIYAASTLQSGVPSRFSGSGSGTDFTLTISSLQPEDVATYYCQNYKSAPWTFGQGTKVEIK
Average pTyr Inhibition [3]: 97% | PROLIFERATION ASSAY: MG-63 CELLS, IC50 [4]: 4.3 nM
